B1: rat anti-GPRC5D antibody 2B1 (antibody, V domains shown)
VH: QVTLKESGPGILQPSQTLSLTCTFSGFSLNTYDMGVGWIRQPSGKGLEWLANIWWDDDKYYNPSLRNRLTISKDTSNNQAFLKITNVDTADTATYYCARIETVRVSRKGFAHWGQGTLVTVSS
VL: ETVMTQSPTSMSTSIGERVTLNCKASQSVGINVDWYQQTPGQSPKLLIYGASNRHTGVPDRFTGSGFGRDFTLTISNVEAEDLAVYYCLQHGSIPPTFGGGTKLELK
notes: Rat IgG2b, kappa chain
B2: IgG form of the human antibody C3015 (antibody, V domains shown)
VH: EVQLVESGGGVVQPGRSLRLSCAASGFTFRNYAMSWVRQAPGKGLEWVSGISGTGGSTYYADSVKGRFTISRDNSKDTLYLQLNSLRAEDTAVYYCAKSRSMSINYGMDVWGQGTTVTVSS
VL: SYELTQPPSVSVSPGQTVSITCSGDNLGDRYASWYQQKPGQSPVQVIYQDTKRPSGIPERFSGSNSGNTATLTISGTQAMDEADYYCQAWDSNTVVFGGGTKLTVLG
notes: Human IgG1; also called C3015 IgG form; full-length IgG form containing C3015

Experiments:
[1] = molecular target: T1, human GPRC5D (human, UniProt Q9NZD1 1-345); assay: flow cytometry, KHM-1B cells
T1 construct: whole, on cells; also called hGPRC5D; G-protein coupled receptor family C group 5 member D
Protocol: Human multiple myeloma cell line KHM-1B cells (JCRB Cell Bank) expressing GPRC5D were adjusted to a concentration of 5×10⁶ cells/mL with PBS containing 5% FBS, inoculated in an amount of 100 μL/well to a 96-well U-bottomed microplate, and centrifuged to remove a supernatant. Each rat anti-GPRC5D antibody (2A4, 2B1, and 7B4) adjusted to 0.32 ng/mL to 10 μg/mL in Example 1)-7 was added thereto in an amount of 100 μL/well, and the plate was left standing at 4° C. for 1 hour. The cells were washed twice with PBS containing 5% FBS. Then, PE Goat Anti-Rat Ab (Becton, Dickinson and Company) diluted 100-fold with PBS containing 5% FBS was added thereto at a concentration of 100 μL/well, and the plate was left standing at 4° C. for 1 hour. The cells were washed twice with PBS containing 5% FBS and then resuspended in PBS containing 5% FBS, followed by detection using a flow cytometer (FACSCanto™ II; Becton, Dickinson and Company). The data was analyzed using Flowjo (Tree Star, Inc.). The PE fluorescence intensity of the cell fraction was plotted to a histogram, and the mean fluorescence intensity (MFI) was calculated.

[2] = molecular target: T1, human GPRC5D; assay: flow cytometry, KMS-34 cells
[3] = molecular target: T2, human GPRC5D amino-terminal peptide MYKDCIESTGDYFLLCDAEGPWGIILE-K(Biotin)-NH2, having an intramolecular … (human, C-terminal lysine carrying biotin, C-terminal amide; intramolecularly formed disulfide bond); assay: ELISA, immobilised biotinylated peptide with disulfide bond
T2 construct: Peptide Institute synthetic peptide; also called amino-terminal peptide of biotinylated human GPRC5D (disulfide bond present)
T2 peptide: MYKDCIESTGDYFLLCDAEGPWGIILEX
Text: (§1) Epitopes bound by the obtained rat anti-GPRC5D antibodies (2A4, 2B1, and 7B4) were identified using a human GPRC5D amino-terminal peptide […](Biotin)-NH₂ (Sigma-Aldrich Corp.) (SEQ ID NO: 1 of the Sequence Listing; FIG. 2) having a biotinylated carboxy-terminal peptide and lacking an intramolecularly formed disulfide bond, and a human GPRC5D amino-terminal peptide […]-K(Biotin)-NH₂ (Peptide Institute, Inc.) (SEQ ID NO: 2 of the Sequence Listing; FIG. 3) having a lysine-containing biotinylated carboxy terminus and having an intramolecularly formed disulfide bond. Each peptide diluted with PBS was added to Nunc Immobilizer (Thermo Fisher Scientific Inc.), and the plate was left standing at room temperature for 1 hour. After washing three times with PBST, […] containing 1% BSA was added thereto, and the plate was left standing at room temperature for 1 hour. After washing three times with PBST, each rat anti-GPRC5D antibody (2A4, 2B1, and 7B4) prepared in Example 1)-7 and diluted to 0.1 ng/mL to 1 μg/mL with PBS was added thereto, and the plate was left standing at room temperature for 1 hour. […] After washing three times with PBST, SuperSignal™ ELISA Pico Chemiluminescent Substrate (Thermo Fisher Scientific Inc.) was added thereto, and the luminescence was measured using a plate reader (ENVISION; PerkinElmer, Inc.).

[4] = molecular target: T3, human GPRC5D amino-terminal peptide …(Biotin)-NH2, lacking an intramolecular disulfide bond (human, biotinylated carboxy terminus, C-terminal amide; no intramolecularly formed disulfide bond); assay: ELISA, immobilised biotinylated peptide without disulfide bond
T3 construct: Sigma-Aldrich synthetic peptide; also called amino-terminal peptide of human GPRC5D (disulfide bond absent)
T3 peptide: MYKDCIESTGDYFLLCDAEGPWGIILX
Text: as §1

[5] = molecular target: T4, amino-terminal peptide of cynomolgus monkey GPRC5D …(Biotin)-NH2 (cynomolgus monkey, C-terminal lysine carrying biotin, C-terminal amide); assay: ELISA, biotinylated peptide on NeutrAvidin
T4 construct: also called amino-terminal peptide of biotinylated cynomolgus monkey GPRC5D
T4 peptide: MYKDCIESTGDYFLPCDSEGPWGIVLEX
Protocol: (§2) NeutrAvidin diluted to 1 μg/mL with PBS was added in an amount of 50 μL/well to 96-well Maxi-sorp plate, and the plate was left standing overnight at 4° C. for immobilization. After washing three times with an ELISA buffer, the amino-terminal peptide of the biotinylated human or cynomolgus monkey GPRC5D (used in Example 10)-1) diluted to 1 μg/mL with PBS was added thereto, and the plate was shaken at room temperature for 1 hour. After washing three times with an ELISA buffer, the plate was blocked with Blocker Casein and washed three times with an ELISA buffer. Then, the culture solution of the IgG-expressing FreeStyle 293F cells was added to the plate and reacted at room temperature for 2 hours. After washing three times with an ELISA buffer, a horseradish peroxidase (HRP)-labeled anti-human Fab antibody (Jackson ImmunoResearch Laboratories, Inc.) diluted 2500-fold with ELISA buffer was added thereto in an amount of 50 μL/well and reacted at room temperature for 1 hour. After washing five times with an ELISA buffer, SuperSignal Pico ELISA Chemiluminescent substrate was added. After 10 minutes, the chemiluminescence was measured using a plate reader.

[6] = molecular target: T1, human GPRC5D; assay: flow cytometry on KHM-1B cells (human GPRC5D), PE anti-human IgG Fc detection, rMFI = MFI minus isotype control
Protocol: Human multiple myeloma cell line KHM-1B cells expressing GPRC5D were adjusted to a concentration of 2×10⁶ cells/mL with PBS containing 5% FBS, inoculated in an amount of 100 μL/well to a 96-well U-bottomed microplate, and centrifuged to remove the supernatant. The culture supernatant of each human anti-GPRC5D antibody (full-length IgG form containing C2037, C3048, C3015, or C3022) obtained in Example 10)-5 or Human IgG isotype control antibody (Calbiochem/Merck Millipore Corp.) adjusted to 14 ng/mL to 30 μg/mL was added thereto in an amount of 100 μL/well, and the plate was left standing at 4° C. for 1 hour. The cells were washed twice with PBS containing 5% FBS. Then, R-Phycoerythrin AffiniPure F(ab′)2 Fragment Goat Anti-Human IgG, Fcγ Fragment Specific (Jackson ImmunoResearch Laboratories, Inc.) diluted 100-fold with PBS containing 5% FBS was added thereto in an amount of 100 μL/well, and the plate was left standing at 4° C. for 1 hour. The cells were washed twice with PBS containing 5% FBS and then resuspended in PBS containing 5% FBS, followed by detection using a flow cytometer (FACSCanto™ II; Becton, Dickinson and Company). The data was analyzed using Flowjo (Tree Star, Inc.). The PE fluorescence intensity of the cell fraction was plotted to a histogram, and the mean fluorescence intensity (MFI) was calculated. The MFI value of the control antibody was subtracted from the MFI value of the GPRC5D antibody to calculate a relative value of MFI (rMFI).

[7] = molecular target: T2, human GPRC5D amino-terminal peptide …; assay: ELISA, chemiluminescence: biotinylated amino-terminal peptide of human GPRC5D on NeutrAvidin, culture supernatant of IgG-expressing cells (one concentration, not given), HRP anti-human Fab detection
Protocol: as §2

Binder | Kd [1] | MFI (max) [1] | Kd [2] | MFI (max) [2] | binding result [3] | binding result [4] | binding result [5] | binding result [6] | binding result [7]
B1 | 14.8 nM | 2390 | 12.7 nM | 3160 | binds | binds |  |  | 
B2 |  |  |  |  |  |  | binds | binds | binds
